Experimental findings from patent US11981935B2, “7β-hydroxysteroid dehydrogenase mutants and process for the preparation of ursodeoxycholic acid” (PharmaZell GmbH, priority 2010, dated 2024) are described below.

The target in series [1] is 7β-HSDH from Collinsella aerofaciens DSM 3979 (Collinsella aerofaciens, UniProt A4ECA9). Format: biochemical.
The target of series [2] is 7β-HSDH (Collinsella aerofaciens, UniProt A4ECA9). As to the kind of experiment: Photometric identification of 7β-HSDH activity (production example 1). It is filed as biochemical, Collinsella aerofaciens ATCC 25986. Particulars: 0.1 mM test substance, potassium phosphate buffer 50 mM pH 8, in the presence of NADP+ or NADPH. The method, then:
For identification of 7β-HSDH activity, the activity was investigated by a photometric method. In a 1 ml cuvette, enzyme and 0.1 mM of test substance (UDCA) were mixed in potassium phosphate buffer (50 mM, pH8).

Substrate in series [3]: NC(=O)C1=CN([C@@H]2O[C@H](COP(=O)(O)OP(=O)(O)OC[C@H]3O[C@@H](n4cnc5c(N)ncnc54)[C@H](OP(=O)(O)O)[C@@H]3O)[C@@H](O)[C@H]2O)C=CC1
As to the kind of experiment: purified protein, by the assay type. The conditions noted are these: other: pH 8, 25° C.

Substrate in series [4]: NC(=O)c1ccc[n+]([C@@H]2O[C@H](COP(=O)([O-])OP(=O)(O)OC[C@H]3O[C@@H](n4cnc5c(N)ncnc54)[C@H](OP(=O)(O)O)[C@@H]3O)[C@@H](O)[C@H]2O)c1
In words: purified protein, by the assay type. The conditions noted are these: other: pH 8, 25° C.

Substrate in series [5]: C[C@H](CCC(=O)O)[C@H]1CC[C@H]2[C@@H]3C(=O)C[C@@H]4CC(=O)CC[C@]4(C)[C@H]3CC(=O)[C@]12C
As to the kind of experiment: Enzyme-kinetic investigation of the 7β-HSDH mutants. The conditions noted are these: other: 0.5 mM NADH. It is filed as biochemical, Collinsella aerofaciens. The text has this:
Altogether, the 7β-HSDH mutants G39D, G39D/R40L, G39D/R40I and G39D/R40V were produced. The G39D mutant is produced by Quickchange mutagenesis, and the other mutants are produced by the PCR method of Sanchis et al. (Sanchis J, Fernández L, Carballeira J D, Drone J, Gumulya Y, Höbenreich H, Kahakeaw D, Kille S, Lohmer R, Peyralans J J, Podtetenieff J, Prasad S, Soni P, Taglieber A, Wu S, Zilly F E, Reetz M T. Improved PCR method for the creation of saturation mutagenesis libraries in directed evolution: application to difficult-to-amplify templates. Appl Microbiol Biotechnol. 2008 November; 81(2): 387-97). The following primers were used for the mutagenesis, with the bases shown in italics coding in each case for the exchanged amino acid:
The mutants prepared are evaluated by means of enzyme-kinetic investigations, the results of which are shown as graphs in FIG. 11. […] The need to increase the cofactor concentration in the enzyme-kinetic investigation of the 7β-HSDH mutants is due to the increased semisaturation concentrations for the cofactor NADH in the mutants. From the plots of substrate concentration versus specific enzyme activity, the characteristic curves of Michaelis-Menten kinetics can be seen for the 7β-HSDH mutants, whereas the curve of Michaelis-Menten kinetics with substrate inhibition can be seen from the plot for the unmodified wild-type 7β-HSDH. Accordingly, the classical Michaelis-Menten model (equation 1) was used for evaluating the measurement series of the 7β-HSDH mutants and the Michaelis-Menten model with substrate inhibition was used for the measurement series of the unmodified wild-type 7β-HSDH (equation 2).
[formula] • EAx: specific enzyme activity, U mg^−1=μmol min^−1 mg^−1 • vmax: maximum specific enzyme activity, U mg^−1=μmol min^−1 mg^−1 • cS: substrate or cofactor concentration, mol L^−1 • Km: semisaturation concentration, mol L^−1
The following table gives enzyme-kinetic parameters of the unmodified wild-type 7β-HSDH and the mutants thereof with altered cofactor specificity. NADPH is used as cofactor for the wild type, whereas NADH is used as cofactor for the mutants.

A short description of series [6]: Photometric activity of 7β-HSDH variants with NADPH or NADH (production example 7). It is filed as biochemical, Collinsella aerofaciens. Particulars: for Specific activity NADH / Volumetric activity NADH: cofactor NADH; for Specific activity NADPH / Volumetric activity NADPH: cofactor NADPH.
The nature of series [7]: Kinetic constants of FDH (mutant D221G) at pH 6, 7 and 8. It is filed as biochemical, Mycobacterium vaccae.

Entries after “also recorded” stand apart in the source; their conditions may differ.

Turning to `NC(=O)c1ccc[n+]([C@@H]2O[C@H](COP(=O)([O-])OP(=O)(O)OC[C@H]3O[C@@H](n4cnc5c(N)ncnc54)[C@H](OP(=O)(O)O)[C@@H]3O)[C@@H](O)[C@H]2O)c1` [NADP^+], the kcat in series [1] is recorded as 944.95 1 μmol/(μmol × min). For the same molecule, the Km in series [1] (pH 8) stood at 5.32 µM.
On to `C[C@H](CCC(=O)O)[C@H]1CC[C@H]2[C@@H]3[C@H](O)C[C@@H]4C[C@H](O)CC[C@]4(C)[C@H]3C[C@H](O)[C@]12C` [CA, Cholic acid], for which the “activity of 7β-HSDH against the test substance” value (shortened to “activity of 7β-HSDH”) in series [2] was “no activity; also recorded: not detectable”.
For `C[C@H](CCC(=O)O)[C@H]1CC[C@H]2[C@@H]3[C@@H](O)C[C@@H]4C[C@H](O)CC[C@]4(C)[C@H]3CC[C@]12C` [UDCA, Ursodeoxycholic acid], the “activity of 7β-HSDH” value in series [2] stood at 60 U/ml. In series [1], the Vmax was 38.17 U/mg protein and the kcat was 1179.39 1 μmol/(μmol × min).
For `C[C@H](CCC(=O)O)[C@H]1CC[C@H]2[C@@H]3C(=O)C[C@@H]4C[C@H](O)CC[C@]4(C)[C@H]3CC[C@]12C` [7-Keto-LCA, 7-Keto-lithocholic acid], in series [2], the “activity of 7β-HSDH” value is 35 U/ml.
Turning to `NC(=O)C1=CN([C@@H]2O[C@H](COP(=O)(O)OP(=O)(O)OC[C@H]3O[C@@H](n4cnc5c(N)ncnc54)[C@H](OP(=O)(O)O)[C@@H]3O)[C@@H](O)[C@H]2O)C=CC1` [NADPH], in series [1], the kcat is 1033.44 1 μmol/(μmol × min).

B1: 7β-HSDH from Collinsella aerofaciens DSM 3979 (ATCC 25986), wild type, SEQ ID NO:2 (Collinsella aerofaciens ATCC 25986) (protein)
chain: MNLREKYGEWGLILGATEGVGKAFCEKIAAGGMNVVMVGRREEKLNVLAGEIRETYGVETKVVRADFSQPGAAETVFAATEGLDMGFMSYVACLHSFGKIQDTPWEKHEAMINVNVVTFLKCFHHYMRIFAAQDRGAVINVSSMTGISSSPWNGQYGAGKAFILKMTEAVACECEGTGVDVEVITLGTTLTPSLLSNLPGGPQGEAVMKIALTPEECVDEAFEKLGKELSVIAGQRNKDSVHDWKANHTEDEYIRYMGSFYRD
For B1, in series [3], the Km was found to be 4.50 µM, the Vmax amounted to 33.4 µmol/min/mg and the kcat was 1033.44 μmol/(μmol × min). Also, in series [4], the Km came to 5.32 µM, the Vmax was determined as 30.6 µmol/min/mg and the kcat was 944.95 μmol/(μmol × min).

B2: Collinsella aerofaciens 7β-HSDH mutant G39D R40I, SEQ ID NO:39 (parent SEQ ID NO:2) (Collinsella aerofaciens ATCC 25986; G39D/R40I) (protein)
chain: MNLREKYGEWGLILGATEGVGKAFCEKIAAGGMNVVMVDIREEKLNVLAGEIRETYGVETKVVRADFSQPGAAETVFAATEGLDMGFMSYVACLHSFGKIQDTPWEKHEAMINVNVVTFLKCFHHYMRIFAAQDRGAVINVSSMTGISSSPWNGQYGAGKAFILKMTEAVACECEGTGVDVEVITLGTTLTPSLLSNLPGGPQGEAVMKIALTPEECVDEAFEKLGKELSVIAGQRNKDSVHDWKANHTEDEYIRYMGSFYRD
notes: made in house
B2: in series [5], the Km came out at 920 ± 170 µM and the Vmax was determined as 4.64 µmol/min/mg.

B3: Collinsella aerofaciens 7β-HSDH mutant G39D, SEQ ID NO:37 (parent SEQ ID NO:2) (Collinsella aerofaciens ATCC 25986; G39D) (protein)
chain: MNLREKYGEWGLILGATEGVGKAFCEKIAAGGMNVVMVDRREEKLNVLAGEIRETYGVETKVVRADFSQPGAAETVFAATEGLDMGFMSYVACLHSFGKIQDTPWEKHEAMINVNVVTFLKCFHHYMRIFAAQDRGAVINVSSMTGISSSPWNGQYGAGKAFILKMTEAVACECEGTGVDVEVITLGTTLTPSLLSNLPGGPQGEAVMKIALTPEECVDEAFEKLGKELSVIAGQRNKDSVHDWKANHTEDEYIRYMGSFYRD
notes: made in house
On to B3, for which, in series [5], the Km was 660 ± 120 µM and the Vmax was 2.9 µmol/min/mg. Also, in series [6], the “Specific activity NADH” value was 0.1 U/mg, the “Volumetric activity NADH” value is reported as 2 U/ml, the “Specific activity NADPH” value is recorded as 5.1 U/mg and the “Volumetric activity NADPH” value came to 119 U/ml.

B4: G39D R40I: 7β-HSDH double mutant G39D/R40I, SEQ ID NO:39 (protein)
chain: MNLREKYGEWGLILGATEGVGKAFCEKIAAGGMNVVMVDIREEKLNVLAGEIRETYGVETKVVRADFSQPGAAETVFAATEGLDMGFMSYVACLHSFGKIQDTPWEKHEAMINVNVVTFLKCFHHYMRIFAAQDRGAVINVSSMTGISSSPWNGQYGAGKAFILKMTEAVACECEGTGVDVEVITLGTTLTPSLLSNLPGGPQGEAVMKIALTPEECVDEAFEKLGKELSVIAGQRNKDSVHDWKANHTEDEYIRYMGSFYRD
Regarding B4, in series [6], the “Specific activity NADH” value amounted to 0.8 U/mg, the “Volumetric activity NADH” value was 21 U/ml, the “Specific activity NADPH” value is listed as 0 U/mg and the “Volumetric activity NADPH” value came out at 0 U/ml.

B5: Collinsella aerofaciens 7β-HSDH mutant G39D R40L, SEQ ID NO:38 (parent SEQ ID NO:2) (Collinsella aerofaciens ATCC 25986; G39D/R40L) (protein)
chain: MNLREKYGEWGLILGATEGVGKAFCEKIAAGGMNVVMVDLREEKLNVLAGEIRETYGVETKVVRADFSQPGAAETVFAATEGLDMGFMSYVACLHSFGKIQDTPWEKHEAMINVNVVTFLKCFHHYMRIFAAQDRGAVINVSSMTGISSSPWNGQYGAGKAFILKMTEAVACECEGTGVDVEVITLGTTLTPSLLSNLPGGPQGEAVMKIALTPEECVDEAFEKLGKELSVIAGQRNKDSVHDWKANHTEDEYIRYMGSFYRD
notes: made in house
Turning to B5, in series [5], the Km was 560 ± 80 µM and the Vmax is 1.6 µmol/min/mg.

B6: Collinsella aerofaciens 7β-HSDH mutant G39D R40V, SEQ ID NO:40 (parent SEQ ID NO:2) (Collinsella aerofaciens ATCC 25986; G39D/R40V) (protein)
chain: MNLREKYGEWGLILGATEGVGKAFCEKIAAGGMNVVMVDVREEKLNVLAGEIRETYGVETKVVRADFSQPGAAETVFAATEGLDMGFMSYVACLHSFGKIQDTPWEKHEAMINVNVVTFLKCFHHYMRIFAAQDRGAVINVSSMTGISSSPWNGQYGAGKAFILKMTEAVACECEGTGVDVEVITLGTTLTPSLLSNLPGGPQGEAVMKIALTPEECVDEAFEKLGKELSVIAGQRNKDSVHDWKANHTEDEYIRYMGSFYRD
notes: made in house
B6: in series [5], the Km worked out at 880 ± 20 µM and the Vmax is 2.69 µmol/min/mg.

B7: FDH: formate dehydrogenase from Mycobacterium vaccae N10, mutant D221G, utilizes both NAD+ and NADP+ (protein)
chain: MAKVLCVLYDDPVDGYPKTYARDDLPKIDHYPGGQILPTPKAIDFTPGQLLGSVSGELGLREYLESNGHTLVVTSDKDGPDSVFERELVDADVVISQPFWPAYLTPERIAKAKNLKLALTAGIGSDHVDLQSAIDRNVTVAEVTYCNSISVAEHVVMMILSLVRNYLPSHEWARKGGWNIADCVSHAYDLEAMHVGTVAAGRIGLAVLRRLAPFDVHLHYTGRHRLPESVEKELNLTWHATREDMYPVCDVVTLNCPLHPETEHMINDETLKLFKRGAYIVNTARGKLCDRDAVARALESGRLAGYAGDVWFPQPAPKDHPWRTMPYNGMTPHISGTTLTAQARYAAGTREILECFFEGRPIRDEYLIVQGGALAGTGAHSYSKGNATGGSEEAAKFKKAV
modifications: CDS (1)..(1203)
As to B7, the Specific activity in series [7] (pH 6, NAD+) came out at 4.6 U × mg^−1; in series [7] (pH 6, NADP+), 1 U × mg^−1; in series [7] (pH 7, NAD+), 5.1 U × mg^−1; in series [7] (pH 7, NADP+) it was 1.2 U × mg^−1; in series [7] (pH 8, NAD+) it was 4.7 U × mg^−1; in series [7] (pH 8, NADP+), 1 U × mg^−1.
